{
  "source": "patent US20130251711A1",
  "key": {"[1]": {"biological_target": "KIR on patient NK cells (KIR2D receptors; KIR2DL1 and KIR2DL2/3)", "assay": "receptor occupancy on patient NK cells by flow cytometry after a single i.v. dose of 0.003 mg/kg (AML dose-escalation trial)"}, "[2]": {"biological_target": "KIR on patient NK cells (KIR2D receptors; KIR2DL1 and KIR2DL2/3)", "assay": "receptor occupancy on patient NK cells by flow cytometry after a single i.v. dose of 0.0003 mg/kg (AML dose-escalation trial)"}},
  "data": [
    {"substance": "anti-KIR antibody 1-7F9", "values": [
      {"measurement": "KIR occupancy", "setting": "[1]", "value": 90, "unit": "%"},
      {"measurement": "KIR occupancy", "setting": "[2]", "value": 50, "unit": "%"}
    ]}
  ]
}
